Reference: patent US20200199204A1 (UNITED STATES OF AMERICA AS REPRESENTED BY THE SECRETARY …, published 2020)

What was measured:
Assay in all cases: cell-based or functional assay
[1] = biological target: HIV-1 Env of Q168.a2 (HIV-1)
[2] = biological target: HIV-1 Env of CAP244.D3 (HIV-1)
[3] = biological target: HIV-1 Env of 3016.V5.c36 (HIV-1)
[4] = biological target: HIV-1 Env of ZM109.4 (HIV-1)
[5] = biological target: HIV-1 Env of QH0692.42 (HIV-1)
[6] = biological target: HIV-1 Env of PVO.04 (HIV-1)
[7] = biological target: HIV-1 Env of ZM53.12 (HIV-1)
[8] = biological target: HIV-1 Env of RHPA.7 (HIV-1)
[9] = biological target: HIV-1 Env of DU172.17 (HIV-1)
[10] = biological target: HIV-1 Env of ZM135.10a (HIV-1)
[11] = biological target: HIV-1 Env of Q842.d12 (HIV-1)
[12] = biological target: HIV-1 Env of TRO.11 (HIV-1)
[13] = biological target: HIV-1 Env of Q259.d2.17 (HIV-1)
[14] = biological target: HIV-1 Env of ZM214.15 (HIV-1)
[15] = biological target: HIV-1 Env of C1080.c3 (HIV-1)
[16] = biological target: HIV-1 Env of TRJO.58 (HIV-1)
[17] = biological target: HIV-1 Env of ZM249.1 (HIV-1)
[18] = biological target: HIV-1 Env of CAP210.E8 (HIV-1)
[19] = biological target: HIV-1 Env of 96ZM651.02 (HIV-1)
[20] = biological target: HIV-1 Env of CM244.ec1 (HIV-1)
[21] = biological target: HIV-1 Env of THRO.18 (HIV-1)
[22] = biological target: HIV-1 Env of SC422.8 (HIV-1)
[23] = biological target: HIV-1 Env of 6405.v4.c34 (HIV-1)
[24] = biological target: HIV-1 Env of 6535.3 (HIV-1)
[25] = biological target: HIV-1 Env of CAAN.A2 (HIV-1)
[26] = biological target: HIV-1 Env of CAP256.SU (HIV-1)
[27] = biological target: HIV-1 Env of 0260.v5.c36 (HIV-1)
[28] = biological target: HIV-1 Env of CAP256.PI (HIV-1)
[29] = biological target: HIV-1 Env of REJO.67 (HIV-1)
[30] = biological target: HIV-1 Env of BG505.w6m (HIV-1)
[31] = biological target: HIV-1 Env of UG037.8 (HIV-1)
[32] = biological target: HIV-1 Env of ZM233.6 (HIV-1)
[33] = biological target: HIV-1 Env of DU156.12 (HIV-1)
[34] = biological target: HIV-1 Env of Q23.17 (HIV-1)
[35] = biological target: HIV-1 Env of CAP45.G3 (HIV-1)
[36] = biological target: HIV-1 Env of AC10.29 (HIV-1)
[37] = biological target: HIV-1 Env of DU422.01 (HIV-1)
[38] = biological target: HIV-1 Env of MB201 (HIV-1)
[39] = biological target: HIV-1 Env of WITO.33 (HIV-1)
[40] = biological target: HIV-1 Env of Q769.d22 (HIV-1)
[41] = biological target: HIV-1 Env of RW020.2 (HIV-1)
[42] = biological target: HIV-1 Env of MB539.2B7 (HIV-1)
[43] = biological target: HIV-1 Env of TH976.17 (HIV-1)
[44] = biological target: HIV-1 Env of KER2008.12 (HIV-1)
[45] = biological target: HIV-1 Env of Q461.e2 (HIV-1)
[46] = biological target: HIV-1 Env of KER2018.11 (HIV-1)
[47] = biological target: HIV-1 Env of 191821.E6.1 (HIV-1)
[48] = biological target: HIV-1 Env of ZM197.7 (HIV-1)
[49] = biological target: HIV-1 Env of CNE3 (HIV-1)
[50] = biological target: Env of SIVmac251.30 (SIV (printed as nonHIV))

B1: CAP256-VRC26.06 (antibody, V domains shown)
VH: EVQLIESGGGVVQPGRSLRLSCGASGFSFNNYGMHWVRQAPGKGLEWVAGISFAGIKKYYGTSVKGRFTISRDNSKNNFYLQMNSLRVEDTALYYCARDLRELECEEWTLYNYYDFGSRGPCVDPRGVAGSFDVWGQGTMVTVSS
VL: QSVLTQPPSVSAAPGQKVTISCSGSTSKIGQNSVSWYQQLPGTAPKLLIYENDRRPSGTPDRFSGSKSGTSATLAITGLQTGDEAEYYCETWDGSGGVFGTGTKVTVLG
For B1, the “neutralization IC50” value [1] was over 50 µg/mL, the “neutralization IC50” value [2] was over 50 µg/mL and the “neutralization IC50” value [3] was over 50 µg/mL. For the same binder, the “neutralization IC50” value [4] was over 50 µg/mL, the “neutralization IC50” value [5] was over 50 µg/mL and the “neutralization IC50” value [6] was 0.308 µg/mL. For the same binder, the “neutralization IC50” value [7] was 0.222 µg/mL, the “neutralization IC50” value [8] was over 50 µg/mL and the “neutralization IC50” value [9] was over 50 µg/mL. For the same binder, the “neutralization IC50” value [10] was over 50 µg/mL, the “neutralization IC50” value [11] was over 50 µg/mL and the “neutralization IC50” value [12] was over 50 µg/mL. For the same binder, the “neutralization IC50” value [13] was over 50 µg/mL, the “neutralization IC50” value [14] was over 50 µg/mL and the “neutralization IC50” value [15] was over 50 µg/mL. For the same binder, the “neutralization IC50” value [16] was over 50 µg/mL, the “neutralization IC50” value [17] was over 50 µg/mL and the “neutralization IC50” value [18] was 0.729 µg/mL. The “neutralization IC50” value [19] was over 50 µg/mL, the “neutralization IC50” value [20] was over 50 µg/mL and the “neutralization IC50” value [21] was 4.25 µg/mL. The “neutralization IC50” value [22] was 0.178 µg/mL, the “neutralization IC50” value [23] was over 50 µg/mL and the “neutralization IC50” value [24] was over 50 µg/mL. The “neutralization IC50” value [25] was over 50 µg/mL, the “neutralization IC50” value [26] was 0.055 µg/mL and the “neutralization IC50” value [27] was over 50 µg/mL. The “neutralization IC50” value [28] was 0.03 µg/mL, the “neutralization IC50” value [29] was over 50 µg/mL and the “neutralization IC50” value [30] was over 50 µg/mL. For the same binder, the “neutralization IC50” value [31] was over 50 µg/mL, the “neutralization IC50” value [32] was over 50 µg/mL and the “neutralization IC50” value [33] was over 50 µg/mL. The “neutralization IC50” value [34] was over 50 µg/mL, the “neutralization IC50” value [35] was over 50 µg/mL and the “neutralization IC50” value [36] was 0.022 µg/mL. For the same binder, the “neutralization IC50” value [37] was over 50 µg/mL, the “neutralization IC50” value [38] was over 50 µg/mL and the “neutralization IC50” value [39] was 0.003 µg/mL. The “neutralization IC50” value [40] was over 50 µg/mL, the “neutralization IC50” value [41] was over 50 µg/mL and the “neutralization IC50” value [42] was over 50 µg/mL. For the same binder, the “neutralization IC50” value [43] was over 50 µg/mL, the “neutralization IC50” value [44] was over 50 µg/mL and the “neutralization IC50” value [45] was over 50 µg/mL. The “neutralization IC50” value [46] was over 50 µg/mL, the “neutralization IC50” value [47] was over 50 µg/mL and the “neutralization IC50” value [48] was over 50 µg/mL. For the same binder, the “neutralization IC50” value [49] was over 50 µg/mL and the “neutralization IC50” value [50] was over 50 µg/mL.

B2: CAP256-VRC26.01 (antibody, V domains shown)
VH: EVQVVESGGGVVQPGRSLRLSCTASGFTFSNFAMGWVRQAPGKGLEWVAFISSDGSNKNYGDSVKGRFTISRDNSKNTVFLQMNSLRVEDTALYYCAKDVGDYKSDEWGTEYYDISISYPIQDPRAMVGAFDLWGQGTMVTVSP
VL: QSVLTQPPSVSAAPGQKVTISCSGSSSTIGNNYVSWYRLLPGTAPKLLIYKNDNRPSGIPDRFSGSKSGTSATLGISGLQTGDEADYYCGTWDTSLSGGGVFGTGTKVTVLG
In the case of B2, the “neutralization IC50” value [1] is reported as over 50 µg/mL, the “neutralization IC50” value [2] is reported as over 50 µg/mL and the “neutralization IC50” value [3] is reported as 9.63 µg/mL. The “neutralization IC50” value [4] was over 50 µg/mL, the “neutralization IC50” value [5] was over 50 µg/mL and the “neutralization IC50” value [6] was over 50 µg/mL. The “neutralization IC50” value [7] was 0.103 µg/mL, the “neutralization IC50” value [8] was over 50 µg/mL and the “neutralization IC50” value [9] was over 50 µg/mL. For the same binder, the “neutralization IC50” value [10] was over 50 µg/mL, the “neutralization IC50” value [11] was over 50 µg/mL and the “neutralization IC50” value [12] was over 50 µg/mL. The “neutralization IC50” value [13] was over 50 µg/mL, the “neutralization IC50” value [14] was over 50 µg/mL and the “neutralization IC50” value [15] was over 50 µg/mL. For the same binder, the “neutralization IC50” value [16] was over 50 µg/mL, the “neutralization IC50” value [17] was over 50 µg/mL and the “neutralization IC50” value [18] was 0.217 µg/mL. For the same binder, the “neutralization IC50” value [19] was over 50 µg/mL, the “neutralization IC50” value [20] was 3.32 µg/mL and the “neutralization IC50” value [21] was over 50 µg/mL. The “neutralization IC50” value [22] was over 50 µg/mL, the “neutralization IC50” value [23] was over 50 µg/mL and the “neutralization IC50” value [24] was over 50 µg/mL. For the same binder, the “neutralization IC50” value [25] was over 50 µg/mL, the “neutralization IC50” value [26] was 0.14 µg/mL and the “neutralization IC50” value [27] was over 50 µg/mL. For the same binder, the “neutralization IC50” value [28] was over 50 µg/mL, the “neutralization IC50” value [29] was over 50 µg/mL and the “neutralization IC50” value [30] was over 50 µg/mL. For the same binder, the “neutralization IC50” value [31] was over 50 µg/mL, the “neutralization IC50” value [32] was over 50 µg/mL and the “neutralization IC50” value [33] was over 50 µg/mL. For the same binder, the “neutralization IC50” value [34] was over 50 µg/mL, the “neutralization IC50” value [35] was over 50 µg/mL and the “neutralization IC50” value [36] was over 50 µg/mL. The “neutralization IC50” value [37] was over 50 µg/mL, the “neutralization IC50” value [38] was over 50 µg/mL and the “neutralization IC50” value [39] was over 50 µg/mL. The “neutralization IC50” value [40] was over 50 µg/mL, the “neutralization IC50” value [41] was over 50 µg/mL and the “neutralization IC50” value [42] was over 50 µg/mL. For the same binder, the “neutralization IC50” value [43] was over 50 µg/mL, the “neutralization IC50” value [44] was 30.9 µg/mL and the “neutralization IC50” value [45] was over 50 µg/mL. For the same binder, the “neutralization IC50” value [46] was 8.1 µg/mL, the “neutralization IC50” value [47] was over 50 µg/mL and the “neutralization IC50” value [48] was 10.4 µg/mL. The “neutralization IC50” value [49] was over 50 µg/mL and the “neutralization IC50” value [50] was over 50 µg/mL.
